Assays:
[1] = target: low-sensitive (LS) (α4)3(β2)2 nicotinic acetylcholine receptor (human) (UniProt P43681)
[2] = target: high-sensitive (HS) (α4)2(β2)3 nicotinic acetylcholine receptor (human) (UniProt P43681)
[3] = target: α3β2 nicotinic acetylcholine receptor (human) (UniProt P32297)

Measured: Maximal inhibition of ACh-evoked currents, % (single level fitted for all three datasets), two-electrode voltage clamp in X. laevis oocytes

UniProt P32297, sequence (P32297 32-505, chain 1 of 2): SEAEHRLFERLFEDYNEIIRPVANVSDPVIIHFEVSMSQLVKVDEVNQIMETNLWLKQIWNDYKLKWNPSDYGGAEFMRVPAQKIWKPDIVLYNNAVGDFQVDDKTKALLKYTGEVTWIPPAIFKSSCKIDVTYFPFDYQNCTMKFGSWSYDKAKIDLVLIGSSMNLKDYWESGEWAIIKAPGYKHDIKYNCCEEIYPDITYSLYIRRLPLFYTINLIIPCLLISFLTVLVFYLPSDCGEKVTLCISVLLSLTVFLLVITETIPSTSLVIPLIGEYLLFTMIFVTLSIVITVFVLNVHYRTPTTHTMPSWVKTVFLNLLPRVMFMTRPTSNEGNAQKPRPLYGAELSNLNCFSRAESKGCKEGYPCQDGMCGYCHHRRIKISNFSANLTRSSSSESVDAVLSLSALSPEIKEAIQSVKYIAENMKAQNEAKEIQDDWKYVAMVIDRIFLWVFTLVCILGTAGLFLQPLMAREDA
UniProt P32297, sequence (P17787 26-502, chain 2 of 2, further chain): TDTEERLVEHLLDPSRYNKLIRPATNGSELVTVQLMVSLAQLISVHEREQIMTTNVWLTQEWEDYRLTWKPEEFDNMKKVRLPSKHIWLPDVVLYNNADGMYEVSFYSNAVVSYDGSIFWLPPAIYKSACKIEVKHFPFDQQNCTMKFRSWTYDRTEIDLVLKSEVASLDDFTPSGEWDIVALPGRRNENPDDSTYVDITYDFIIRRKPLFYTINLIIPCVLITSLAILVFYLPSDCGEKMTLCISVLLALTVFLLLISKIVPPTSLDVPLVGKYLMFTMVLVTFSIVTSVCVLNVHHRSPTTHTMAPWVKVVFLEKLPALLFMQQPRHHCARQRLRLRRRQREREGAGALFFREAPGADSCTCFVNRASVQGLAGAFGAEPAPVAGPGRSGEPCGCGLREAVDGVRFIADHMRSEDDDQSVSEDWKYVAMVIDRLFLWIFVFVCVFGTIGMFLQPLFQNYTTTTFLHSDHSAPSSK

water-soluble recombinant analog of human prostate stem cell antigen (ws-PSCA) (domain or fragment)
31%: all assays above

Reference: article PMC12562601
